Source: patent US20090118185A1 (UNIVERSITY OF ROCHESTER, published 2009)

Experiments:
[1] = biological target: T1, human activated protein C (human, UniProt P04070 43-197; P04070 212-461); assay: cell-based or functional assay
[2] = biological target: T1, human activated protein C; assay: cell-based or functional assay; remark: listed apart in the source

T1 sequence (P04070 43-197, chain 1 of 2): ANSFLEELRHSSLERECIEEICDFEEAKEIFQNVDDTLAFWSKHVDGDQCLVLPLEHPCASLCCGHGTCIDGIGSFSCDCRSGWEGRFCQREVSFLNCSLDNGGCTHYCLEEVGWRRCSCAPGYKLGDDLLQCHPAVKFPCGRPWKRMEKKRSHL
T1 sequence (P04070 212-461, chain 2 of 2): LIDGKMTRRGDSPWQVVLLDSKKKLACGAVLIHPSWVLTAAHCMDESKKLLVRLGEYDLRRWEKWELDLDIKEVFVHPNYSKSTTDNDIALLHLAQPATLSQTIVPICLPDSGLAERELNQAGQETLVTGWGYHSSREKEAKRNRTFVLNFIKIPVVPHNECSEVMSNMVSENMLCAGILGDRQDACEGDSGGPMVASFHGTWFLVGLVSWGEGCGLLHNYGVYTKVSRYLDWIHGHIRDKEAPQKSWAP

Binder	Inactivation (nM FVIIIa/min/nM APC) [1]	fold increase of rate of generation of the A2c fragment compared with WT factor VIII [2]	fold reduction of inactivation rate compared to WT factor VIIIa [2]
562(P4-P2)336 factor VIII mutant (procofactor) (other) chain 1: ATRRYYLGAVELSWDYMQSDLGELPVDARFPPRVPKSFPFNTSVVYKKTLFVEFTVHLFNIAKPRPPWMGLLGPTIQAEVYDTVVITLKNMASHPVSLHAVGVSYWKASEGAEYDDQTSQREKEDDKVFPGGSHTYVWQVLKENGPMASDPLCLTYSYLSHVDLVKDLNSGLIGALLVCREGSLAKEKTQTLHKFILLFAVFDEGKSWHSETKNSLMQDRDAASARAWPKMHTVNGYVNRSLPGLIGCHRKSVYWHVIGMGTTPEVHSIFLEGHTFLVRNHRQASLEISPITFLTAQTLLMDLGQFLLFCHISSHQHDGMEAYVKVDSCPEEPQLRMKNNEEAEDYDDDLTDSEMDVVRFDDDNSPSFIQIRSVAKKHPKTWVHYIAAEEEDWDYAPLVLAPDDRSYKSQYLNNGPQRIGRKYKKVRFMAYTDETFKTREAIQHESGILGPLLYGEVGDTLLIIFKNQASRPYNIYPHGITDVRPLYSRRLPKGVKHLKDFPILPGEIFKYKWTVTVEDGPTKSDPRCLTRYYSSFVNMERDLASGLIGPLLICYKESPQLRGNQIMSDKRNVILFSVFDENRSWYLTENIQRFLPNPAGVQLEDPEFQASNIMHSINGYVFDSLQLSVCLHEVAYWYILSIGAQTDFLSVFFSGYTFKHKMVYEDTLTLFPFSGETVFMSMENPGLWILGCHNSDFRNRGMTALLKVSSCDKNTGDYYEDSYEDISAYLLSKNNAIEPR chain 2: SFQKKTRHYFIAAVERLWDYGMSSSPHVLRNRAQSGSVPQFKKVVFQEFTDGSFTQPLYRGELNEHLGLLGPYIRAEVEDNIMVTFRNQASRPYSFYSSLISYEEDQRQGAEPRKNFVKPNETKTYFWKVQHHMAPTKDEFDCKAWAYFSDVDLEKDVHSGLIGPLLVCHTNTLNPAHGRQVTVQEFALFFTIFDETKSWYFTENMERNCRAPCNIQMEDPTFKENYRFHAINGYIMDTLPGLVMAQDQRIRWYLLSMGSNENIHSIHFSGHVFTVRKKEEYKMALYNLYPGVFETVEMLPSKAGIWRVECLIGEHLHAGMSTLFLVYSNKCQTPLGMASGHIRDFQITASGQYGQWAPKLARLHYSGSINAWSTKEPFSWIKVDLLAPMIIHGIKTQGARQKFSSLYISQFIIMYSLDGKKWQTYRGNSTGTLMVFFGNVDSSGIKHNIFNPPIIARYIRLHPTHYSIRSTLRMELMGCDLNSCSMPLGMESKAISDAQITASSYFTNMFATWSPSKARLHLQGRSNAWRPQVNNPKEWLQVDFQKTMKVTGVTTQGVKSLLTSMYVKEFLISSSQDGHQWTLFFQNGKVKVFQGNQDSFTPVVNSLDPPLLTRYLRIHPQSWVHQIALRMEVLGCEAQDLY		6 fold	
336(P1′-P3′)562 factor VIIIa mutant (other) chain 1: ATRRYYLGAVELSWDYMQSDLGELPVDARFPPRVPKSFPFNTSVVYKKTLFVEFTVHLFNIAKPRPPWMGLLGPTIQAEVYDTVVITLKNMASHPVSLHAVGVSYWKASEGAEYDDQTSQREKEDDKVFPGGSHTYVWQVLKENGPMASDPLCLTYSYLSHVDLVKDLNSGLIGALLVCREGSLAKEKTQTLHKFILLFAVFDEGKSWHSETKNSLMQDRDAASARAWPKMHTVNGYVNRSLPGLIGCHRKSVYWHVIGMGTTPEVHSIFLEGHTFLVRNHRQASLEISPITFLTAQTLLMDLGQFLLFCHISSHQHDGMEAYVKVDSCPEEPQLRGNQNEEAEDYDDDLTDSEMDVVRFDDDNSPSFIQIR chain 2: SVAKKHPKTWVHYIAAEEEDWDYAPLVLAPDDRSYKSQYLNNGPQRIGRKYKKVRFMAYTDETFKTREAIQHESGILGPLLYGEVGDTLLIIFKNQASRPYNIYPHGITDVRPLYSRRLPKGVKHLKDFPILPGEIFKYKWTVTVEDGPTKSDPRCLTRYYSSFVNMERDLASGLIGPLLICYKESVDQRGNQIMSDKRNVILFSVFDENRSWYLTENIQRFLPNPAGVQLEDPEFQASNIMHSINGYVFDSLQLSVCLHEVAYWYILSIGAQTDFLSVFFSGYTFKHKMVYEDTLTLFPFSGETVFMSMENPGLWILGCHNSDFRNRGMTALLKVSSCDKNTGDYYEDSYEDISAYLLSKNNAIEPR chain 3: SFQKKTRHYFIAAVERLWDYGMSSSPHVLRNRAQSGSVPQFKKVVFQEFTDGSFTQPLYRGELNEHLGLLGPYIRAEVEDNIMVTFRNQASRPYSFYSSLISYEEDQRQGAEPRKNFVKPNETKTYFWKVQHHMAPTKDEFDCKAWAYFSDVDLEKDVHSGLIGPLLVCHTNTLNPAHGRQVTVQEFALFFTIFDETKSWYFTENMERNCRAPCNIQMEDPTFKENYRFHAINGYIMDTLPGLVMAQDQRIRWYLLSMGSNENIHSIHFSGHVFTVRKKEEYKMALYNLYPGVFETVEMLPSKAGIWRVECLIGEHLHAGMSTLFLVYSNKCQTPLGMASGHIRDFQITASGQYGQWAPKLARLHYSGSINAWSTKEPFSWIKVDLLAPMIIHGIKTQGARQKFSSLYISQFIIMYSLDGKKWQTYRGNSTGTLMVFFGNVDSSGIKHNIFNPPIIARYIRLHPTHYSIRSTLRMELMGCDLNSCSMPLGMESKAISDAQITASSYFTNMFATWSPSKARLHLQGRSNAWRPQVNNPKEWLQVDFQKTMKVTGVTTQGVKSLLTSMYVKEFLISSSQDGHQWTLFFQNGKVKVFQGNQDSFTPVVNSLDPPLLTRYLRIHPQSWVHQIALRMEVLGCEAQDLY	0.9 nM FVIIIa/min/nM APC		6 to 11 fold

Results, then the binder that gave them:

Inactivation (nM FVIIIa/min/nM APC) [1]	fold increase of rate of generation of the A2c fragment compared with WT factor VIII [2]	fold reduction of inactivation rate compared to WT factor VIIIa [2]	Binder
5.4 nM FVIIIa/min/nM APC			WT factor VIIIa (B-domainless recombinant human factor VIII activated by thrombin) (other) chain 1: ATRRYYLGAVELSWDYMQSDLGELPVDARFPPRVPKSFPFNTSVVYKKTLFVEFTVHLFNIAKPRPPWMGLLGPTIQAEVYDTVVITLKNMASHPVSLHAVGVSYWKASEGAEYDDQTSQREKEDDKVFPGGSHTYVWQVLKENGPMASDPLCLTYSYLSHVDLVKDLNSGLIGALLVCREGSLAKEKTQTLHKFILLFAVFDEGKSWHSETKNSLMQDRDAASARAWPKMHTVNGYVNRSLPGLIGCHRKSVYWHVIGMGTTPEVHSIFLEGHTFLVRNHRQASLEISPITFLTAQTLLMDLGQFLLFCHISSHQHDGMEAYVKVDSCPEEPQLRMKNNEEAEDYDDDLTDSEMDVVRFDDDNSPSFIQIR chain 2: SVAKKHPKTWVHYIAAEEEDWDYAPLVLAPDDRSYKSQYLNNGPQRIGRKYKKVRFMAYTDETFKTREAIQHESGILGPLLYGEVGDTLLIIFKNQASRPYNIYPHGITDVRPLYSRRLPKGVKHLKDFPILPGEIFKYKWTVTVEDGPTKSDPRCLTRYYSSFVNMERDLASGLIGPLLICYKESVDQRGNQIMSDKRNVILFSVFDENRSWYLTENIQRFLPNPAGVQLEDPEFQASNIMHSINGYVFDSLQLSVCLHEVAYWYILSIGAQTDFLSVFFSGYTFKHKMVYEDTLTLFPFSGETVFMSMENPGLWILGCHNSDFRNRGMTALLKVSSCDKNTGDYYEDSYEDISAYLLSKNNAIEPR chain 3: SFQKKTRHYFIAAVERLWDYGMSSSPHVLRNRAQSGSVPQFKKVVFQEFTDGSFTQPLYRGELNEHLGLLGPYIRAEVEDNIMVTFRNQASRPYSFYSSLISYEEDQRQGAEPRKNFVKPNETKTYFWKVQHHMAPTKDEFDCKAWAYFSDVDLEKDVHSGLIGPLLVCHTNTLNPAHGRQVTVQEFALFFTIFDETKSWYFTENMERNCRAPCNIQMEDPTFKENYRFHAINGYIMDTLPGLVMAQDQRIRWYLLSMGSNENIHSIHFSGHVFTVRKKEEYKMALYNLYPGVFETVEMLPSKAGIWRVECLIGEHLHAGMSTLFLVYSNKCQTPLGMASGHIRDFQITASGQYGQWAPKLARLHYSGSINAWSTKEPFSWIKVDLLAPMIIHGIKTQGARQKFSSLYISQFIIMYSLDGKKWQTYRGNSTGTLMVFFGNVDSSGIKHNIFNPPIIARYIRLHPTHYSIRSTLRMELMGCDLNSCSMPLGMESKAISDAQITASSYFTNMFATWSPSKARLHLQGRSNAWRPQVNNPKEWLQVDFQKTMKVTGVTTQGVKSLLTSMYVKEFLISSSQDGHQWTLFFQNGKVKVFQGNQDSFTPVVNSLDPPLLTRYLRIHPQSWVHQIALRMEVLGCEAQDLY
	27 fold		562(P4-P3′)336 factor VIII mutant (procofactor) (other) chain 1: ATRRYYLGAVELSWDYMQSDLGELPVDARFPPRVPKSFPFNTSVVYKKTLFVEFTVHLFNIAKPRPPWMGLLGPTIQAEVYDTVVITLKNMASHPVSLHAVGVSYWKASEGAEYDDQTSQREKEDDKVFPGGSHTYVWQVLKENGPMASDPLCLTYSYLSHVDLVKDLNSGLIGALLVCREGSLAKEKTQTLHKFILLFAVFDEGKSWHSETKNSLMQDRDAASARAWPKMHTVNGYVNRSLPGLIGCHRKSVYWHVIGMGTTPEVHSIFLEGHTFLVRNHRQASLEISPITFLTAQTLLMDLGQFLLFCHISSHQHDGMEAYVKVDSCPEEPQLRMKNNEEAEDYDDDLTDSEMDVVRFDDDNSPSFIQIRSVAKKHPKTWVHYIAAEEEDWDYAPLVLAPDDRSYKSQYLNNGPQRIGRKYKKVRFMAYTDETFKTREAIQHESGILGPLLYGEVGDTLLIIFKNQASRPYNIYPHGITDVRPLYSRRLPKGVKHLKDFPILPGEIFKYKWTVTVEDGPTKSDPRCLTRYYSSFVNMERDLASGLIGPLLICYKESPQLRMKNIMSDKRNVILFSVFDENRSWYLTENIQRFLPNPAGVQLEDPEFQASNIMHSINGYVFDSLQLSVCLHEVAYWYILSIGAQTDFLSVFFSGYTFKHKMVYEDTLTLFPFSGETVFMSMENPGLWILGCHNSDFRNRGMTALLKVSSCDKNTGDYYEDSYEDISAYLLSKNNAIEPR chain 2: SFQKKTRHYFIAAVERLWDYGMSSSPHVLRNRAQSGSVPQFKKVVFQEFTDGSFTQPLYRGELNEHLGLLGPYIRAEVEDNIMVTFRNQASRPYSFYSSLISYEEDQRQGAEPRKNFVKPNETKTYFWKVQHHMAPTKDEFDCKAWAYFSDVDLEKDVHSGLIGPLLVCHTNTLNPAHGRQVTVQEFALFFTIFDETKSWYFTENMERNCRAPCNIQMEDPTFKENYRFHAINGYIMDTLPGLVMAQDQRIRWYLLSMGSNENIHSIHFSGHVFTVRKKEEYKMALYNLYPGVFETVEMLPSKAGIWRVECLIGEHLHAGMSTLFLVYSNKCQTPLGMASGHIRDFQITASGQYGQWAPKLARLHYSGSINAWSTKEPFSWIKVDLLAPMIIHGIKTQGARQKFSSLYISQFIIMYSLDGKKWQTYRGNSTGTLMVFFGNVDSSGIKHNIFNPPIIARYIRLHPTHYSIRSTLRMELMGCDLNSCSMPLGMESKAISDAQITASSYFTNMFATWSPSKARLHLQGRSNAWRPQVNNPKEWLQVDFQKTMKVTGVTTQGVKSLLTSMYVKEFLISSSQDGHQWTLFFQNGKVKVFQGNQDSFTPVVNSLDPPLLTRYLRIHPQSWVHQIALRMEVLGCEAQDLY
